Assay results as given in patent US6737240B1, “Methods of screening for a multi-drug resistance conferring peptide” (Rigel Pharmaceuticals, Inc., priority 1999, dated 2004).

Legend:
HeLa cells [1] = assay: Flow cytometric analysis of cellular DNA content (cell cycle); assay type: cell-based; settings: peptide positive (GFP gated) vs peptide negative cells
Method: RG8.5 peptide expressing cells were growing to 50% confluence. The cells were harvested and processed for flow cytometry of DNA. In the DNA content profile, the bold line represents the peptide negative cells and the grayed area curve represents the RG8.5 peptide positive cells. Cells were gated for GFP expression, FIG. 6B top, as indicated.
Flow cytometric analysis of cellular DNA content. The RG8.5 expressing cells were grown in the logarithmic phase. The cells were harvested, washed once with PBS and fixed in 2% paraformaldehyde pH7.4 at 4° C. for 30 minutes. After washing with 1 %BSA-PBS, the cells were resuspended in PI staining buffer containing […] RNase, 50 ug/ml PI, 0.1% Triton X100 in 0.1% Na Citrate pH7.4 buffer, RT for 30 min, and analyzed on FACS.

Bcl-2 = assay: Endogenous anti-apoptotic protein level; assay type: cell-based; settings: cells expressing RGP8.5, presence or absence of Dox; data not shown
XAPC7 = target: T1, XAPC7 (Homo sapiens, UniProt O14818); assay: Biotinylated RGP8.5 peptide affinity purification from HeLa cell extract; assay type: binding; settings: streptavidin beads
T1 construct: endogenous in cells; host or cells: HeLa cell extract
Method: (§1) HeLa cell extract were pre-cleared with a streptavidin column. The biotinylated RG8.5 peptide was then added to the cell lysate and allowed to mix overnight at 4° C. Next day streptavidin agarose beads were incubated with the cell extract for 3 hours at 4° C. After washing the beads five times with lysis buffer, the associated proteins were eluted with 2× protein sample buffer, resolved on SDS-PAGE and detected with monoclonal antibody against Zeta and XAPC7 proteasome subunits.
(§2) Transfection, immunoprecipitation and western blot. A calcium phosphate transfection method was used for all transfections of test constructs into 293T cells. Cells were lysed in […] of TNT buffer (20 mM Tris-HCl pH7.5, 200 mM NaCl and 1% Triton-X100), supplemented with 1 mM DTT and protease cocktail (Boehringer Mannheim). The cell extracts were incubated with […] anti-flag antibody conjugated beads (Babco) at 4° C. The beads were spun down and washed with […] TNT buffer for four times. For immunoprecipitation with biotinylated RG8.5 peptide, 3 10^6 Hela cells were lysed in a buffer containing 20 mM HEPES pH7.4, 150 mM NaCl and 1% NP40 and precleaned with a Streptavidin column (Pierce, Rockford, Ill.) to reduce non-specific binding. 3 ml of biotinylated RG8.5 peptide (1 mg/ml) in DMSO was added to the cell lysate and allowed to mix overnight at 4 ° C. […]

Zeta = target: T2, Zeta (Homo sapiens, UniProt P28066); assay: as above; assay type: binding; settings: streptavidin beads
T2 construct: endogenous in cells; host or cells: HeLa cell extract
Method: as §1, §2

HeLa cells [2] = assay: Clonogenic survival assay in naive HeLa cells; assay type: cell-based; settings: Taxol for 48 hours, colonies after two weeks; absence of Dox (peptide on) vs presence of Dox (peptide off)
Method: HeLa cells were infected with a tet-regulatory retroviral vector (Tra) expressing the RGP8.5 peptide or GFP control. After infection, 2×10^5 cells were split into one well of 6-well plate and half of cells were incubated with Dox. The next day the cells were treated with different dosages of Taxol for 48 hours. Two weeks later, the surviving colonies were stained with Giemsa solution and photographed. The cells with Dox were kept in Dox throughout the experiment. This assay has been repeated with the RGP8.5 peptide several times.
RT-PCR for peptide rescue and MDR1 mRNA level assay. Peptide sequences were rescued by RT-PCR from Taxol-resistant cells and later cloned into a Tra vector (in which the peptide expression was under tetracycline control). Each peptide was re-tested in naive Hela cells by a clonogenic survival assay. For semi-quantitative PCR to measure MDR-1 mRNA level, RiboGreen RNA quantification kit (Molecular Probes) and […] of total RNA were used for reverse transcription. Oligonucleotides for amplification of MDR-1 mRNA were described previously (Chen, G. et al., (1997) J. Biol. Chem., 272, 5974-5982).
Clonogenic survival assay. Viruses carrying the rescued peptides were used to infect Hela cells as described above. After infection, 2×10^5 cells were seeded into single well of 6-well plate w/o Doxycycline (200 ng/ml) in the medium. […]

[3] = target: T3, proteasome alpha type subunit Zeta (Homo sapiens, UniProt P28066); assay: Yeast two-hybrid screening with RGP8.5 bait; assay type: binding; settings: of 26 positive clones from 20 million transformants
T3 construct: expressed in transfected cells; host or cells: yeast (two-hybrid transformants)
T3 sequence (P28066 1-241): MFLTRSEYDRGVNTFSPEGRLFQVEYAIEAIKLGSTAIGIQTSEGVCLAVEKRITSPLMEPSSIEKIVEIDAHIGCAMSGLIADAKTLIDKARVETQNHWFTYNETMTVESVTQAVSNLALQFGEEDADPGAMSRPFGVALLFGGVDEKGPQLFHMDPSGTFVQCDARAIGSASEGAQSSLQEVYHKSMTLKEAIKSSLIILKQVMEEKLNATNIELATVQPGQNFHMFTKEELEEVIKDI
Source text: (§3) Yeast two-hybrid screening. The bait used for two-hybrid screening was RGP8.5 fused to the Gal4 DNA binding domain containing a three glycine linker/spacer. A cDNA library made from a combination of multiple human tissues (brain, lymphocyte, stomach, pancreas, liver, intestine) was used for the screening. 20 million transformants were screened. 27 His^+/LacZ^+ colonies were retrieved for further analysis.

[4] = target: T4, proteasome alpha type subunit XAPC7 (Homo sapiens, UniProt O14818); assay: Yeast two-hybrid screening with RGP8.5 bait; assay type: binding; settings: of 26 positive clones from 20 million transformants
T4 construct: expressed in transfected cells; host or cells: yeast (two-hybrid transformants)
T4 sequence (O14818 1-248): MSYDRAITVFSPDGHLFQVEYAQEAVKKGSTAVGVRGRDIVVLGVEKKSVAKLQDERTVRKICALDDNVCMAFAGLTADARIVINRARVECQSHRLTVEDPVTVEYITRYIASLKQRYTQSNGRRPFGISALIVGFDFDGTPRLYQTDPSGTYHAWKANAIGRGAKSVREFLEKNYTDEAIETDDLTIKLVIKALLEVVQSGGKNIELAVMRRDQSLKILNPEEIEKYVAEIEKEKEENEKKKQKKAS
Source text: as §3

binding of endogenous XAPC7 subunit (XAPC7): shown to bind
binding of endogenous Zeta subunit (Zeta): shown to bind
positive yeast two-hybrid clones encoding Zeta [3]: 1
positive yeast two-hybrid clones encoding XAPC7 [4]: 25
Substance: MGEFLIVKVVWGRMVCWV-LVVRRFVLVIVLENSLSSNQGPP [RGP8.5]
cell cycle distribution (HeLa cells [1]): accumulate at G2/M
Bcl-2 expression level (Bcl-2): same expression level
survival of HeLa cells in clonogenic survival assay (HeLa cells [2]): enhanced survival
